Experimental data from patent US20200024330A1.

Assays:
Assay in all cases: cell-based or functional assay
[1] = target: HIV-1 94UG103 envelope glycoprotein (Env) (HIV-1)
[2] = target: HIV-1 Env of isolate 92UG037 (HIV-1)
[3] = target: HIV-1 Env of isolate MGRM-G-013 (subtype G) (HIV-1)
[4] = target: HIV-1 Env of isolate MGRM-D-022 (HIV-1)
[5] = target: HIV-1 Env of isolate 93MW959 (HIV-1)
[6] = target: HIV-1 Env of isolate MGRM-Chronic-B-003 (HIV-1)
[7] = target: HIV-1 Env of isolate MGRM-Chronic-B-008 (HIV-1)
[8] = target: HIV-1 Env of isolate MGRM-F1-020 (HIV-1)
[9] = target: HIV-1 Env of isolate MGRM-F1-021 (HIV-1)
[10] = target: HIV-1 Env of isolate QH0692.42 (HIV-1)
[11] = target: HIV-1 Env of isolate SF162 (HIV-1) (UniProt P19550)

PGT-142 (4995_E20) (antibody), sequence (VH): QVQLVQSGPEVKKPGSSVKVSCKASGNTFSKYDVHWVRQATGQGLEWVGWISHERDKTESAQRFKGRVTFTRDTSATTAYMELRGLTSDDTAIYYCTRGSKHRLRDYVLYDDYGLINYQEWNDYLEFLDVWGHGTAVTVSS
PGT-142 (4995_E20) (antibody), sequence (VL): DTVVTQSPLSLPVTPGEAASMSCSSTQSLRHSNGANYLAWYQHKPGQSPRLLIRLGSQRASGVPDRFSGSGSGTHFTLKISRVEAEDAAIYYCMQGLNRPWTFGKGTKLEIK
PGT-143 (4980_N08) (antibody), sequence (VH): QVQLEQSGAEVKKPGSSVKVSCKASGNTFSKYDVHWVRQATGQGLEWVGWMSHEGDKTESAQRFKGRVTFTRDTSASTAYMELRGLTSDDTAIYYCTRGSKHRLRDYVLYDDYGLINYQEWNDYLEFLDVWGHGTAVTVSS
PGT-143 (4980_N08) (antibody), sequence (VL): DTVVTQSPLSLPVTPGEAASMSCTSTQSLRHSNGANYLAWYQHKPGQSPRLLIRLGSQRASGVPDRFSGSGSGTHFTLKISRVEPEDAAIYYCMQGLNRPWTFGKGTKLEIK
PGT-141 (4964_G22; 4993_K13) (antibody), sequence (VH): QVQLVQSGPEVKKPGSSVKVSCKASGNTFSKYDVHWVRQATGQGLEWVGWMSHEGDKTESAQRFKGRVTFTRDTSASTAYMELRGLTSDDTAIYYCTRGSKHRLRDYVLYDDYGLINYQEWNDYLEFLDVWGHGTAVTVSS
PGT-144 (4970_K22) (antibody), sequence (VH): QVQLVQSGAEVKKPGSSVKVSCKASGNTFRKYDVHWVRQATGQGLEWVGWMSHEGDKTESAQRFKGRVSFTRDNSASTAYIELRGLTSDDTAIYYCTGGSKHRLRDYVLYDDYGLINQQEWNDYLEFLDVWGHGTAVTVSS
PGT-144 (4970_K22) (antibody), sequence (VL): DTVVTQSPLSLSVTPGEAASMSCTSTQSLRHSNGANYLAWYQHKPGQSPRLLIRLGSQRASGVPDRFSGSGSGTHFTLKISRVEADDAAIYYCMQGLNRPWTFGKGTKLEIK

PGT-121 (antibody)
IC50 neutralization [1]: 1.38 µg/mL | IC50 (µg/mL), pseudovirus neutralization [2]: 0.031 µg/mL

PGT-122 (antibody)
IC50 neutralization [1]: 1.46 µg/mL | IC50 (µg/mL), pseudovirus neutralization [2]: 0.068 µg/mL

PGT-141 (4964_G22; 4993_K13) (antibody)
neutralization IC50 [3]: > 50 µg/mL

PGT-142 (4995_E20) (antibody)
neutralization IC50 [3]: > 50 µg/mL

PGT-143 (4980_N08) (antibody)
neutralization IC50 [3]: > 50 µg/mL

PGT-144 (4970_K22) (antibody)
neutralization IC50 [3]: > 50 µg/mL

PGV04 (antibody)
IC50 [2]: 0.145 µg/mL | IC50 (µg/mL), pseudovirus neutralization [4]: > 50 µg/mL | neutralization IC50 [3]: 0.168 µg/mL

VRC01 (antibody)
neutralization IC50 [5]: 0.053 µg/mL | IC50 [6]: 0.1 µg/mL | IC50 [7]: 0.155 µg/mL | IC50, pseudovirus neutralization [4]: > 50 µg/mL | IC50, pseudovirus neutralization [8]: 1.89 µg/mL | IC50, pseudovirus neutralization [9]: 0.039 µg/mL | neutralization IC50 [3]: 0.553 µg/mL | neutralization IC50 [10]: 1.19 µg/mL | neutralization IC50 [11]: 0.421 µg/mL
